One data set concerns the target T1, FBF-2 RBD+CT L610A (Caenorhabditis elegans, UniProt Q09312 164-632, L610A).
T1 sequence: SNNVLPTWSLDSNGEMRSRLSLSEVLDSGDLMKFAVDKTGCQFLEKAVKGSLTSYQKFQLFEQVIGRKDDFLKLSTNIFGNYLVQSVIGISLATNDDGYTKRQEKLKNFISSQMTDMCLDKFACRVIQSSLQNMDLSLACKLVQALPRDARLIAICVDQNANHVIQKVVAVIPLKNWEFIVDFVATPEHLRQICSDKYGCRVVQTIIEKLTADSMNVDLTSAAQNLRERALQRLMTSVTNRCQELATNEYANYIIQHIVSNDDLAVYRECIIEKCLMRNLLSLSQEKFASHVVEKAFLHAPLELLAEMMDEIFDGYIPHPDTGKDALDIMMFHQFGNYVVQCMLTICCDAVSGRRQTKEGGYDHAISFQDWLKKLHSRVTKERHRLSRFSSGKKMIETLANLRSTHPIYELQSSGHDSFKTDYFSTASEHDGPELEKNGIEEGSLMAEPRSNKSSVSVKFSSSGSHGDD
The experiment in a line: EMSA; apparent Kd, Hill fit; EMSA: 5 nM RNA, 10 mM HEPES pH 7.4, 75 mM NaCl, 0.01% Tween 20, 0.1 mg/ml BSA, 0.1 mg/ml yeast tRNA, 2 mM DTT, 4 C overnight. As to conditions: protein: recombinant; label: 3'-Cy5. Background: Mobility shift assays separate free from complexed probe on a gel.

The next data set addresses T2, FBF-2 RBD (Caenorhabditis elegans, UniProt Q09312 164-575).
T2 sequence: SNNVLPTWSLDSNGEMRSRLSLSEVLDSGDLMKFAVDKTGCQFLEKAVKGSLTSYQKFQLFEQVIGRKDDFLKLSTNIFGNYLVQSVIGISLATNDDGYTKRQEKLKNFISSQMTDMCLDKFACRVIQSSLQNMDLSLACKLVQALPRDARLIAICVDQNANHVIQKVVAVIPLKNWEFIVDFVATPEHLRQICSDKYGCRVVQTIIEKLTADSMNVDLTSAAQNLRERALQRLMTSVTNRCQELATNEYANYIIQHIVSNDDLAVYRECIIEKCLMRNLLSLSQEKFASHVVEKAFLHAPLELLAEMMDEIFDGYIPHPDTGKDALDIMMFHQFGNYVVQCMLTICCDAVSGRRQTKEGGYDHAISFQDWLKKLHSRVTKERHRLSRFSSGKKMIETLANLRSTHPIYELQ
The description is as above. As to conditions: protein: recombinant; tags: His-SUMO, removed by TEV; label: 3'-Cy5.

The target in a further data set is T3, FBF-2 RBD+CT (Caenorhabditis elegans, UniProt Q09312 164-632).
T3 sequence: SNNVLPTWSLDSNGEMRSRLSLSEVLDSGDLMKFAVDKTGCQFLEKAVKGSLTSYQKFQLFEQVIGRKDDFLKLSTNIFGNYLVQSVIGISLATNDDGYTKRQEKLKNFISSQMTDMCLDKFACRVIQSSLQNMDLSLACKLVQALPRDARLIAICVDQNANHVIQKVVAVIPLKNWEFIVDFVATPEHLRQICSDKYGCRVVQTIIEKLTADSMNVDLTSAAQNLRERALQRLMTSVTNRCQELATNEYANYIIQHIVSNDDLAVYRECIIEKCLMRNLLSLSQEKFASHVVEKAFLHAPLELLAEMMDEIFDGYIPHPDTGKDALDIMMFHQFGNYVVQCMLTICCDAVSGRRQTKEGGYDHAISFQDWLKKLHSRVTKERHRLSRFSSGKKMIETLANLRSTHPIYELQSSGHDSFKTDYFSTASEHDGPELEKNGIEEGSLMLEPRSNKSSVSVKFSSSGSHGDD
Described as above. Particulars: protein: recombinant; tags: His6-SUMO, removed by Ulp1; label: 3'-Cy5.

The target in another data set is T4, LST-1 19-98 (Caenorhabditis elegans, UniProt P91820 19-98).
T4 sequence: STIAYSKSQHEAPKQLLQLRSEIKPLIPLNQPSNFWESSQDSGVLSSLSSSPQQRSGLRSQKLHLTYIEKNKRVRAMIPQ
The experiment in a line: EMSA; 10 uM LST-1 19-98; nonspecific intermediate band, seen with FBF-2 present; EMSA: 5 nM RNA, 10 mM HEPES pH 7.4, 75 mM NaCl, 0.01% Tween 20, 0.1 mg/ml BSA, 0.1 mg/ml yeast tRNA, 2 mM DTT, 4 C overnight. Particulars: protein: recombinant; tags: His6-SUMO removed by Ulp1; GST removed by TEV when coexpressed; label: 3'-Cy5.

For another data set, the target named is T5, FBF-2 RBD+CT;LST-1 19-98 (Caenorhabditis elegans;Caenorhabditis …, UniProt Q09312;P91820 164-632;19-98, |).
T5 sequence 1: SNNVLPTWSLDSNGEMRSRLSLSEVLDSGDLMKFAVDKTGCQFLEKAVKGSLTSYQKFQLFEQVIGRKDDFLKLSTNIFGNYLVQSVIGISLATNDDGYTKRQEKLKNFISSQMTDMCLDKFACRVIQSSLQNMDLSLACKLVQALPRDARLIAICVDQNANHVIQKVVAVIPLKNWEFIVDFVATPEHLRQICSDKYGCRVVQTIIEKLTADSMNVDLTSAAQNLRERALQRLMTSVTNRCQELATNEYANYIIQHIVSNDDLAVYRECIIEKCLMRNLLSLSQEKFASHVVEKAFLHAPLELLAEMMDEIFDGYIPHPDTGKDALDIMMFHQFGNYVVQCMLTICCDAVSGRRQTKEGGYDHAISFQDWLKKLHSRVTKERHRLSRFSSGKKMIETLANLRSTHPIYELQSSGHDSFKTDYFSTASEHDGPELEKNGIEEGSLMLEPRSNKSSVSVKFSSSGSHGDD
T5 sequence 2: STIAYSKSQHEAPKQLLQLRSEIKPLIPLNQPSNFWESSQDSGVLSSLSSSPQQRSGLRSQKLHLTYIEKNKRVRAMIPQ
The experiment in a line: EMSA; 10 uM LST-1 19-98; apparent Kd; EMSA: 5 nM RNA, 10 mM HEPES pH 7.4, 75 mM NaCl, 0.01% Tween 20, 0.1 mg/ml BSA, 0.1 mg/ml yeast tRNA, 2 mM DTT, 4 C overnight. As to conditions: protein: recombinant;recombinant; tags: His6-SUMO, removed by Ulp1;His6-SUMO removed by Ulp1; GST removed by TEV when coexpressed; chain copies: 2;1; label: 3'-Cy5.

Another data set has as its target T6, FBF-2 RBD;LST-1 19-98 (Caenorhabditis elegans;Caenorhabditis …, UniProt Q09312;P91820 164-575;19-98, |).
T6 sequence 1: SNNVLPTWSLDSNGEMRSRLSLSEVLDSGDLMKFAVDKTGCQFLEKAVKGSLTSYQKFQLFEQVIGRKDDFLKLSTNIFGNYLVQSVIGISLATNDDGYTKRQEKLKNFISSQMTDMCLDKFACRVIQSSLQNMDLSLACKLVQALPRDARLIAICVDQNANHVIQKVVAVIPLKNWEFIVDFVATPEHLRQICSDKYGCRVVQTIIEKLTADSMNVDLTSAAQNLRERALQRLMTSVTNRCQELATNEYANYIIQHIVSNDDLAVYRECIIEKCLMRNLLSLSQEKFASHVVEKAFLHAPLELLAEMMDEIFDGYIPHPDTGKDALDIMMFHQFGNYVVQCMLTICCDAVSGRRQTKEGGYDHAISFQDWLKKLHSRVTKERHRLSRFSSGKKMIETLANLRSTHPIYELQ
T6 sequence 2: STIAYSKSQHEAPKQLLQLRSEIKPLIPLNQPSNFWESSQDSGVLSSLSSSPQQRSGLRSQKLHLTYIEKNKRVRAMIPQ
The data set is described as above. Particulars: protein: recombinant;recombinant; tags: His-SUMO, removed by TEV;His6-SUMO removed by Ulp1; GST removed by TEV when coexpressed; chain copies: 2;1; label: 3'-Cy5.

In the case of AUCAUGUGCCAUACAUCAUGUUGCCAUUU (ssRNA) [gld-1 FBEa-FBEa* (EMSA)], the Kd with FBF-2 RBD+CT L610A amounted to 80 ± 11 nM; with FBF-2 RBD, 131 ± 10 nM; with FBF-2 RBD+CT, 435 ± 25 nM; with FBF-2 RBD+CT;LST-1 19-98, 109 ± 2 nM; with FBF-2 RBD;LST-1 19-98, 107 ± 3 nM. Further, the binding result with LST-1 19-98 was “binds”.

The values are drawn from article PMC11696143, “A higher order PUF complex is central to regulation of C. elegans germline stem cells” (Nature Communications, 2024).
